In patent US20260209370A1 (RADIANT BIOTHERAPEUTICS, published 2026):

T1: recombinant mouse 4-1BB protein (mouse, UniProt P20334 24-187)
T1 sequence (looked up): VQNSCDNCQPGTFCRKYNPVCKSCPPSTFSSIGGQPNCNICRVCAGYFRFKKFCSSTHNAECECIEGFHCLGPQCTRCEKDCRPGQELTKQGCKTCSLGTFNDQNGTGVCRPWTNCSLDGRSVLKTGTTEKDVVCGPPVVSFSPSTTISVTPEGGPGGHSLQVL

B1: NM21 IgG1 (parent IgG of Fab #1) (antibody, V domains shown)
VH: EVQLVESGGGLVQPGGSLRLSCAASGFSFSANYYPCWVRQAPGKGLEWIGCIYGGSSDITYDANWTKGRFTISRDNSKNTVYLQMNSLRAEDTAVYYCARSAWYSGWGGDLWGQGTLVTVSS
VL: DIQMTQSPSSLSASVGDRVTITCQASQSISNRLAWYQQKPGKAPKLLIYSASTLASGVPSRFSGSGSGTDFTLTISSLQPEDFATYYCQSTYYGNDGNAFGTGTKVTVLG
B2: Urelumab IgG4 (antibody, V domains shown)
VH: QVQLQQWGAGLLKPSETLSLTCAVYGGSFSGYYWSWIRQSPEKGLEWIGEINHGGYVTYNPSLESRVTISVDTSKNQFSLKLSSVTAADTAVYYCARDYGPGNYDWYFDLWGRGTLVTVSS
VL: EIVLTQSPATLSLSPGERATLSCRASQSVSSYLAWYQQKPGQAPRLLIYDASNRATGIPARFSGSGSGTDFTLTISSLEPEDFAVYYCQQRSNWPPALTFGGGTKVEIK
B3: effector silent α-4-1BB (AG10058; Fab #3) MB (protein, part only; not given: Fab constants, linkers, ferritin carriers, not shown: another chain or arm of the molecule; a dimerising Fc or GST; large carriers; small tags and cut ends)
VH: EVQLVESGGGLVQPGGSLRLSCAASGFSLSTSGVGVGWIRQAPGKGLEWLALIDWDDDKYYSPSLKSRLTISRDNSKNTLYLQLNSLRAEDTAVYYCARGGSDTVLGDWFAYWGQGTLVTVSS
VL: DIQLTQSPSSLSASVGDRVTITCRASQSVSPYLAWYQQKPGKAPKLLIYDASSLESGVPSRFSGSGSGTDFTLTISSLQPEDFATYYCQQGYSLWTFGQGTKVEIK
modifications: Self-assembled ferritin nanocage (Multabody) made from scFab-hFTL, scFab-N_hFTL and scFc(LLRAL)-C_hFTL fusions, with genes mixed 2:1:1. The letters do not carry this multivalent display.
B4: AG10058 IgG (IgG4; parent IgG of Fab #3) (antibody, V domains shown)
VH: B3 VH
VL: B3 VL
notes: also called Fab #3 IgG

Experiments:
[1] = molecular target: 4-1BB on engineered 4-1BB-expressing effector cells (luciferase reporter assay) (UniProt Q07011); test: cell-based or functional assay
[2] = molecular target: 4-1BB on engineered 4-1BB-expressing effector cells (luciferase reporter assay) (UniProt Q07011 24-255, limits assumed); test: cell-based or functional assay
[3] = molecular target: T1, recombinant mouse 4-1BB protein; test: ELISA, plates coated with recombinant 4-1BB, detection with goat α-human Fcγ-HRP
Protocol: Cross-reactivity was assessed using ELISA. Briefly, plates were coated with recombinant 4-1BB proteins derived from either human, cynomolgus monkey, or mouse. Plates were then washed, blocked, and incubated with bovine serum albumin (BSA), along with a series of known concentrations of α-4-1BB IgGs/MBs. The plate was then washed and incubated with a Goat α-human Fcy-HRP secondary antibody to detect bound IgG/MB. The plates were then washed again and developed with TMB substrate to detect HRP and read at OD 450 nm.

Molecule	EC50 (nM) + Fc (4-1BB agonism, luciferase reporter, with FcγRIIb CHO-K1 cells) [1] [nM]	EC50 (nM) - Fc (4-1BB agonism, luciferase reporter, without Fc crosslinking) [1] [nM]	EC50 (nM) + Fc (4-1BB agonism, luciferase reporter, with FcγRIIb CHO-K1 cells) [2] [nM]	EC50 (nM) - Fc (4-1BB agonism, luciferase reporter, without Fc crosslinking) [2] [nM]	binding result [3]
Urelumab MB (effector-silent α-4-1BB Multabody displaying scFabs based on urelumab)	0.079	0.087	–	–	–
B1	–	–	0.258	–	–
B2	–	–	0.25	0.442	–
B3	0.019	0.02	–	–	–
B4	–	–	0.346	–	binds
